{
  "source": "paper PMC6825360",
  "about": "“Chaetomella raphigera β-glucosidase D2-BGL has intriguing structural features and a high substrate affinity that renders it an efficient cellulase supplement for lignocellulosic biomass hydrolysis” (Biotechnology for Biofuels, 2019)",
  "key": {"D2-BGL [1]": {"target": "T1, D2-BGL (Chaetomella raphigera, UniProt A0A068FT77)", "T1 construct": "secreted recombinant from Pichia pastoris SMD1168 (pGAPZalphaC), His-tagged (strain #5 has an extra N-terminal 6-His), IMAC purified, N-hyperglycosylated, smear 95-180 kDa; TIM barrel 1-307, alpha/beta sandwich 319-521, FnIII 573-712", "T1 sequence (A0A068FT77 1-722)": "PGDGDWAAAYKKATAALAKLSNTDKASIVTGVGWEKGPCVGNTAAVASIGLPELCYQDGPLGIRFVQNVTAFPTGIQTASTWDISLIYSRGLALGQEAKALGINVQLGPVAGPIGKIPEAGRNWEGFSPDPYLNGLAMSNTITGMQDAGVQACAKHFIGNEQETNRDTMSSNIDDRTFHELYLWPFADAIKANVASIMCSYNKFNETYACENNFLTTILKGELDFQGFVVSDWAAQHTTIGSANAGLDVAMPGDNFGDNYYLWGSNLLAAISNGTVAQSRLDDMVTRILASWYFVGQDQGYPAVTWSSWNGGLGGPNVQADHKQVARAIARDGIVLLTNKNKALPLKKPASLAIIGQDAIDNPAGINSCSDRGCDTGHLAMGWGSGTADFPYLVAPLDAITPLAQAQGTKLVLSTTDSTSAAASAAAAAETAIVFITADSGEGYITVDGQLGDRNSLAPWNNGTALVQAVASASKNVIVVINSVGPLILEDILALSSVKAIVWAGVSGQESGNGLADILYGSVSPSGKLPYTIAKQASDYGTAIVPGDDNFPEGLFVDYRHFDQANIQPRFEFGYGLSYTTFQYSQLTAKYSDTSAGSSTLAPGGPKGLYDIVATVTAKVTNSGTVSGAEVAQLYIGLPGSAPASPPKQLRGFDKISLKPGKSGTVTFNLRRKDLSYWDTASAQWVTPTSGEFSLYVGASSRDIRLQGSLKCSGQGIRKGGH", "test": "inhibition of pNPG hydrolysis at […] glucose, absorbance of pNP at […] nm, non-linear fit", "type": "biochemical", "conditions": "read-out: Ki glucose; substrate pNPG; pH 5 (50 mM sodium acetate), 55 °C; product inhibition"}, "D2-BGL [2]": {"target": "D2-BGL (Chaetomella raphigera, UniProt A0A068FT77, INS255S/N255I, form not given)", "test": "cellobiase assay, glucose release, crude secreted enzyme", "type": "biochemical", "conditions": "crude enzyme from P. pastoris culture; mutant N255* (N255 replaced by two residues I-S); wild type measured beside it 1.45 mM"}, "[3]": {"test": "cellobiase assay after non-denaturing deglycosylation", "conditions": "glycan lost; control: non-deglycosylated enzyme"}, "purified protein": {"substrate": "O=[N+]([O-])c1ccc(O[C@@H]2O[C@H](CO)[C@@H](O)[C@H](O)[C@H]2O)cc1", "test": "purified protein", "conditions": "pH 5 (50 mM sodium acetate), 55 °C, 10 min"}, "[4]": {"test": "productivity from culture supernatant activity, P. pastoris", "conditions": "glycan lost; control: wild type"}, "[5]": {"test": "specific activity of purified enzyme", "conditions": "glycan lost; control: wild type"}},
  "data": [
    {"molecule": "OC[C@H]1OC(O)[C@H](O)[C@@H](O)[C@@H]1O", "note": "(stereo partly drawn) [glucose]", "values": [
      {"measurement": "Ki", "setting": "D2-BGL [1]", "value": "2420 ± 690", "unit": "µM"}
    ]},
    {"molecule": "OC[C@H]1O[C@@H](O[C@H]2[C@H](O)[C@@H](O)C(O)O[C@@H]2CO)[C@H](O)[C@@H](O)[C@@H]1O", "note": "(stereo partly drawn) [cellobiose]", "values": [
      {"measurement": "Km", "setting": "D2-BGL [2]", "value": 2840, "unit": "µM"}
    ]},
    {"molecule": "β-glucosidase D2-BGL: Endo H (protein) parent chain: PGDGDWAAAYKKATAALAKLSNTDKASIVTGVGWEKGPCVGNTAAVASIGLPELCYQDGPLGIRFVQNVTAFPTGIQTASTWDISLIYSRGLALGQEAKALGINVQLGPVAGPIGKIPEAGRNWEGFSPDPYLNGLAMSNTITGMQDAGVQACAKHFIGNEQETNRDTMSSNIDDRTFHELYLWPFADAIKANVASIMCSYNKFNETYACENNFLTTILKGELDFQGFVVSDWAAQHTTIGSANAGLDVAMPGDNFGDNYYLWGSNLLAAISNGTVAQSRLDDMVTRILASWYFVGQDQGYPAVTWSSWNGGLGGPNVQADHKQVARAIARDGIVLLTNKNKALPLKKPASLAIIGQDAIDNPAGINSCSDRGCDTGHLAMGWGSGTADFPYLVAPLDAITPLAQAQGTKLVLSTTDSTSAAASAAAAAETAIVFITADSGEGYITVDGQLGDRNSLAPWNNGTALVQAVASASKNVIVVINSVGPLILEDILALSSVKAIVWAGVSGQESGNGLADILYGSVSPSGKLPYTIAKQASDYGTAIVPGDDNFPEGLFVDYRHFDQANIQPRFEFGYGLSYTTFQYSQLTAKYSDTSAGSSTLAPGGPKGLYDIVATVTAKVTNSGTVSGAEVAQLYIGLPGSAPASPPKQLRGFDKISLKPGKSGTVTFNLRRKDLSYWDTASAQWVTPTSGEFSLYVGASSRDIRLQGSLKCSGQGIRKGGH", "values": [
      {"measurement": "enzymatic_activity, other: specific activity", "setting": "[3]", "value": "no change, 185 ± 21 vs 209 ± 14"}
    ]},
    {"molecule": "D2-BGL (Chaetomella raphigera) (protein) PGDGDWAAAYKKATAALAKLSNTDKASIVTGVGWEKGPCVGNTAAVASIGLPELCYQDGPLGIRFVQNVTAFPTGIQTASTWDISLIYSRGLALGQEAKALGINVQLGPVAGPIGKIPEAGRNWEGFSPDPYLNGLAMSNTITGMQDAGVQACAKHFIGNEQETNRDTMSSNIDDRTFHELYLWPFADAIKANVASIMCSYNKFNETYACENNFLTTILKGELDFQGFVVSDWAAQHTTIGSANAGLDVAMPGDNFGDNYYLWGSNLLAAISNGTVAQSRLDDMVTRILASWYFVGQDQGYPAVTWSSWNGGLGGPNVQADHKQVARAIARDGIVLLTNKNKALPLKKPASLAIIGQDAIDNPAGINSCSDRGCDTGHLAMGWGSGTADFPYLVAPLDAITPLAQAQGTKLVLSTTDSTSAAASAAAAAETAIVFITADSGEGYITVDGQLGDRNSLAPWNNGTALVQAVASASKNVIVVINSVGPLILEDILALSSVKAIVWAGVSGQESGNGLADILYGSVSPSGKLPYTIAKQASDYGTAIVPGDDNFPEGLFVDYRHFDQANIQPRFEFGYGLSYTTFQYSQLTAKYSDTSAGSSTLAPGGPKGLYDIVATVTAKVTNSGTVSGAEVAQLYIGLPGSAPASPPKQLRGFDKISLKPGKSGTVTFNLRRKDLSYWDTASAQWVTPTSGEFSLYVGASSRDIRLQGSLKCSGQGIRKGGH", "values": [
      {"measurement": "Km", "setting": "purified protein", "value": "200 ± 100", "unit": "µM"},
      {"measurement": "Vmax", "setting": "purified protein", "value": 419, "unit": "µmol/min/mg"}
    ]},
    {"molecule": "β-glucosidase D2-BGL: T431A (protein) parent chain: PGDGDWAAAYKKATAALAKLSNTDKASIVTGVGWEKGPCVGNTAAVASIGLPELCYQDGPLGIRFVQNVTAFPTGIQTASTWDISLIYSRGLALGQEAKALGINVQLGPVAGPIGKIPEAGRNWEGFSPDPYLNGLAMSNTITGMQDAGVQACAKHFIGNEQETNRDTMSSNIDDRTFHELYLWPFADAIKANVASIMCSYNKFNETYACENNFLTTILKGELDFQGFVVSDWAAQHTTIGSANAGLDVAMPGDNFGDNYYLWGSNLLAAISNGTVAQSRLDDMVTRILASWYFVGQDQGYPAVTWSSWNGGLGGPNVQADHKQVARAIARDGIVLLTNKNKALPLKKPASLAIIGQDAIDNPAGINSCSDRGCDTGHLAMGWGSGTADFPYLVAPLDAITPLAQAQGTKLVLSTTDSTSAAASAAAAAETAIVFITADSGEGYITVDGQLGDRNSLAPWNNGTALVQAVASASKNVIVVINSVGPLILEDILALSSVKAIVWAGVSGQESGNGLADILYGSVSPSGKLPYTIAKQASDYGTAIVPGDDNFPEGLFVDYRHFDQANIQPRFEFGYGLSYTTFQYSQLTAKYSDTSAGSSTLAPGGPKGLYDIVATVTAKVTNSGTVSGAEVAQLYIGLPGSAPASPPKQLRGFDKISLKPGKSGTVTFNLRRKDLSYWDTASAQWVTPTSGEFSLYVGASSRDIRLQGSLKCSGQGIRKGGH", "values": [
      {"measurement": "expression_or_secretion, other: productivity", "setting": "[4]", "value": "decreases, 3.2 vs 9.6, T431A mutant (0.61 ± 0.05 U/mL)"},
      {"measurement": "enzymatic_activity, other: specific activity", "setting": "[5]", "value": "no change, 189 ± 11 vs 197 ± 3"}
    ]},
    {"molecule": "β-glucosidase D2-BGL: N68Q (protein) parent chain: PGDGDWAAAYKKATAALAKLSNTDKASIVTGVGWEKGPCVGNTAAVASIGLPELCYQDGPLGIRFVQNVTAFPTGIQTASTWDISLIYSRGLALGQEAKALGINVQLGPVAGPIGKIPEAGRNWEGFSPDPYLNGLAMSNTITGMQDAGVQACAKHFIGNEQETNRDTMSSNIDDRTFHELYLWPFADAIKANVASIMCSYNKFNETYACENNFLTTILKGELDFQGFVVSDWAAQHTTIGSANAGLDVAMPGDNFGDNYYLWGSNLLAAISNGTVAQSRLDDMVTRILASWYFVGQDQGYPAVTWSSWNGGLGGPNVQADHKQVARAIARDGIVLLTNKNKALPLKKPASLAIIGQDAIDNPAGINSCSDRGCDTGHLAMGWGSGTADFPYLVAPLDAITPLAQAQGTKLVLSTTDSTSAAASAAAAAETAIVFITADSGEGYITVDGQLGDRNSLAPWNNGTALVQAVASASKNVIVVINSVGPLILEDILALSSVKAIVWAGVSGQESGNGLADILYGSVSPSGKLPYTIAKQASDYGTAIVPGDDNFPEGLFVDYRHFDQANIQPRFEFGYGLSYTTFQYSQLTAKYSDTSAGSSTLAPGGPKGLYDIVATVTAKVTNSGTVSGAEVAQLYIGLPGSAPASPPKQLRGFDKISLKPGKSGTVTFNLRRKDLSYWDTASAQWVTPTSGEFSLYVGASSRDIRLQGSLKCSGQGIRKGGH", "values": [
      {"measurement": "expression_or_secretion, other: productivity", "setting": "[4]", "value": "decreases, 4.5 vs 9.6, N68Q mutant (0.98 ± 0.22 U/mL) ... relative to that of wild-type (1.89 ± 0.18 U/mL)"},
      {"measurement": "enzymatic_activity, other: specific activity", "setting": "[5]", "value": "no change, 216 ± 23 vs 197 ± 3"}
    ]}
  ]
}
